From patent US20240052042A1 (Novartis, published 2024)
Each block holds one binder with its values, some of them ahead of it.

How the values were obtained:
[1] = biological target: W74R hNPR1 mutant in the presence of ANP (human) (UniProt P01160); test: ELISA, IgG titrated on coated antigen with ANP (250 fold molar excess), fluorescence [Cont.]
[2] = biological target: T1, human Natriuretic Peptide Receptor 1 (hNPR1) (human, UniProt P16066 33-473, limits assumed); test: ELISA, IgG titrated on coated antigen, fluorescence [Cont.]
T1 construct: pannings used NPR1-hFc; also called NPR1-hFc
T1 sequence: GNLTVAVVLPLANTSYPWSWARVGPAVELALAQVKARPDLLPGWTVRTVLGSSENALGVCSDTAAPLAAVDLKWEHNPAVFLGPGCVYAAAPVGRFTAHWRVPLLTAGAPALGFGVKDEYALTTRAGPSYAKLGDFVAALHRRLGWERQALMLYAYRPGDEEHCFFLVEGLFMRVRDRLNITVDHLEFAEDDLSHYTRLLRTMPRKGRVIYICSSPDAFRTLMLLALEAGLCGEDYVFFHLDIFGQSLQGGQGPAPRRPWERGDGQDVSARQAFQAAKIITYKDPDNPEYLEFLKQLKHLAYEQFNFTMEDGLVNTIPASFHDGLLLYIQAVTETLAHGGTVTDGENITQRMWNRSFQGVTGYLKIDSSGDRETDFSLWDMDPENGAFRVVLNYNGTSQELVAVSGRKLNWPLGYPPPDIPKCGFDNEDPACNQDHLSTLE

[3] = biological target: T1, human Natriuretic Peptide Receptor 1 …; test: FRET ANP competition assay: IgG titrated on NPR1, Eu-labeled donor, Cy5-labeled ANP as the competed ligand [Cont.]
Method: The same 31 IgGs were tested for ANP competition using a Fluorescence Resonance Energy Transfer (FRET)-based assay in which the NPR1-specific antibodies competed with ANP for binding to NPR1. In this FRET based assay (see FIG. 3), Eu-labeled Streptavidin (for measurement of IgGs) or Eu-labeled anti-hFc antibody (for measurement of FabCys) was used as an energy donor, while Cy5-labeled ANP was used as an acceptor (for all measurements). The resulting fluorescent signal was decreased by ANP-competitive antibodies. The assay was performed as follows: antibodies were mixed with NPR1 and incubated for 5 minutes at room temperature. After addition of the Eu-labeled donor and incubation for 30 minutes at room temperature, the Cy5-ANP solution was added. After a further 60-minute incubation, readout was performed using a TECAN Infinite M1000 Pro using an excitation wavelength of 317 nm and an emission wavelength of 665 nm. Percentage of ANP competition was calculated according to the following formulae: […]
All 92 FabCys and 24 IgGs were tested for binding to relevant antigens via ELISA and relevant cell lines by flow cytometry. […] Eight functional candidates were identified and analyzed for specificity in the Protein Panel Profiling assay (3P assay) in IgG format. For comparison, one of the functional candidates from the initial campaign (WW03) was analyzed. […]

hNPR1-ANP complex = biological target: T2, hNPR1-ANP complex (human, UniProt P01160 124-151, limits assumed); test: ELISA, IgG titrated on coated antigen with ANP (250 fold molar excess), fluorescence [Cont.]
T2 construct: hNPR1 antigen in the presence of ANP; also called hNPR1 + 100 nM ANP
T2 sequence: T1 sequence
T2 sequence (peptide): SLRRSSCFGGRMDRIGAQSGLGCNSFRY

rNPR1-ANP complex (rat) = biological target: T3, rNPR1-ANP complex (rat); test: ELISA, 1 µM IgG
T3 sequence: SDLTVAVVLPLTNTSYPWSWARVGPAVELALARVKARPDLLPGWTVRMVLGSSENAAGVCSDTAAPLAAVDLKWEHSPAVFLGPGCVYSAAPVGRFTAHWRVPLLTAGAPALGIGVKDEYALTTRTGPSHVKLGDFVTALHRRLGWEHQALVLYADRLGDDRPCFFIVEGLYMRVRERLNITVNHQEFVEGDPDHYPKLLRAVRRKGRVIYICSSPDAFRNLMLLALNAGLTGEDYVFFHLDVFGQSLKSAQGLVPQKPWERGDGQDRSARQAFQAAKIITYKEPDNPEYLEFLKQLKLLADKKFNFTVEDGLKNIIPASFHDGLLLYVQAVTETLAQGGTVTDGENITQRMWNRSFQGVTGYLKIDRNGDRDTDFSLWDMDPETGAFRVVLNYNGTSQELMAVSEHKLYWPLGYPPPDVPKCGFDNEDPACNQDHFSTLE
T3 sequence (peptide): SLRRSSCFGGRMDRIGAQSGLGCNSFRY

[4] = biological target: T4, human NPR3 (counter target) (human, UniProt P17342 27-481, limits assumed); test: ELISA, IgG titrated on coated antigen, fluorescence [Cont.]
T4 construct: Pannings used hNPR3-hFc; also called hNPR3; hNPR3-hFc
T4 sequence (looked up): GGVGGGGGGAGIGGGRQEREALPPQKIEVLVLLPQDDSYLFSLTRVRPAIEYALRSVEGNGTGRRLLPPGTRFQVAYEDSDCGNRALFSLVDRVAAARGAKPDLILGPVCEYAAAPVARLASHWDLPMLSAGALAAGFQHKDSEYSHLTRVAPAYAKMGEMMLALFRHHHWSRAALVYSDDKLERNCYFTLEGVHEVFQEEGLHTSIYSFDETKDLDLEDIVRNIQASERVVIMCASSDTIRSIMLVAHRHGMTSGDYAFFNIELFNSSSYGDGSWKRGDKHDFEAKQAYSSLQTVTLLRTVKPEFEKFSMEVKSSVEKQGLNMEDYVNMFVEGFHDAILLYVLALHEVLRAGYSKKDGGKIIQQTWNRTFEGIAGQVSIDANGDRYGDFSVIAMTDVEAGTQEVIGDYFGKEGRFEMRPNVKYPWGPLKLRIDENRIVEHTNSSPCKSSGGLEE

rat NPR1 (rNPR1) = biological target: T5, rat NPR1 (rNPR1) (rat, UniProt P18910 29-469, limits assumed); test: as above
T5 construct: Soluble antigen
T5 sequence: T3 sequence

rNPR1-ANP complex = biological target: T6, rNPR1-ANP complex (rat, UniProt P01160 124-151 (human entry), limits assumed); test: ELISA, 1 µM IgG; design: unit not given here
T6 construct: rNPR1 antigen in the presence of ANP; also called rNPR1 + 100 nM ANP
T6 sequence: T3 sequence
T6 sequence (peptide): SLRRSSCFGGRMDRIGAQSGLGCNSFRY

EC50 (read off the curve) [1]: 20 nM | EC50 (read off the curve) [2]: ~7 nM | IC50 (read off the curve) [3]: ~4 nM | EC50 (read off the curve) (hNPR1-ANP complex): ~7 nM | ELISA binding at 1 µM IgG (rNPR1-ANP complex (rat)): 4
B1: YY06 (IgG format) (antibody, V domains shown)
VH: EVQLLESGGGLVQPGGSLRLSCAASGFTFSSYAISWVRQAPGKGLEWVSAISGSGGSTYYAESVKGRFTISRDNSKNTLYLQMNSLRAEDTAVYYCARPYLGDRRSYGFDHWGQGTLVTVSS
VL: QSALTQPASVSGSPGQSITISCTGTSSDVGSYNLVSWYQQHPGKAPKLMIYEGSKRPSGVSNRFSGSKSGNTASLTISGLQAEDEADYYCSSYGFHIVVVVFGGGTKLTVLG
notes: also called YY06_LALA

binding result [4]: no binding (tested: 1000 nM) | binding result (rat NPR1 (rNPR1)): no binding (tested: 1000 nM) | ELISA binding at 1 µM IgG (rNPR1-ANP complex): 3
B2: YY07 (IgG format) (antibody, V domains shown)
VH: EVQLVQSGAEVKKPGESLKISCKGSGYSFTSYWISWVRQMPGKGLEWMGIIYPGTSYTRYSPSFQGQVTISADKSISTAYLQWSSLKASDTAMYYCARGSLPGLLGFDHWGQGTLVTVSS
VL: QSVLTQPPSVSGAPGQRVTISCTGSSSNIGAGYDVHWYQQLPGTAPKLLIYGNSNRPNGVPDRFSGSKSGTSASLAITGLQAEDEADYYCQSYDSPTSSSVFGGGTKLTVLG
notes: also called YY07_LALA
